This assay has as its target TSLP (M29-130), longer subunit of the PCSK-generated heterodimeric TSLP (human, UniProt Q969D9 29-130). The experiment in a line: MALDI-TOF MS with and without DTT.

B1: TSLP (131-159), shorter subunit of the truncated thymic stromal lymphopoietin (peptide, UniProt Q969D9 131-159, looked up)
chain: KVTTNKCLEQVSQLQGLWRRFNRPLLKQQ
In the case of B1, the binding result is recorded as “binds”.
